Where two headings read alike, the source gives them in different places. Values belong to the binder of their own block, whether it stands above or below them. Bridge positions count the residues as written; N and C are the ends. Square brackets hold non-standard residues; d marks the D form. Ends that are not written are not given here. Pen = CC(C)(S)[C@H](N)C(=O)O; NMeA = CN[C@@H](C)C(=O)O
Legend:
soluble human FcRn [1] = biological target: T1, soluble human FcRn (human, UniProt P55899 24-297; P61769 21-119, biotinylated (Sulfo-NHS-LC-Biotin) in the ELISA; amine-coupled to CM5 chip in SPR); experiment: SPR, pH 6
T1 construct: also called shFcRn; biotinylated shFcRn
Protocol: (§1) The following steps were performed to cross-link soluble human or cynomolgus FcRn to the dextran surface of a CM5 sensor chip (Biacore AB, Uppsala, Sweden) by an amine coupling reaction involving 1-ethyl-(3-dimethylaminopropyl)-carbodiimide hydrochloride (EDC) (Biacore AB, Uppsala, Sweden) and N-hydroxysuccinimide (NHS) (Biacore AB, Uppsala, Sweden) as recommended by Biacore (BIAapplications Handbook, version AB, section 4.2, Biacore AB, Uppsala, Sweden). […] Residual sites on the FcRn flow cell were blocked with 1 M ethanolamine hydrochloride pH 8.5 (Biacore AB, Uppsala, Sweden). A control flow cell was blocked with ethanolamine for reference subtraction. For analysis of the monomeric peptides, FcRn was coated to a final density of 4000-5000 response units (RU). For analysis of the peptide dimers, FcRn was coated to a density of 2000-2500 RU. All SPR measurements were performed using a BIACORE 3000 Instrument (Biacore AB Uppsala, Sweden). For measurements done at either pH 6 or pH 7.4, experiments were performed in 50 mM phosphate, 100 mM sodium chloride, 0.01% surfactant P20 (Biacore AB, Uppsala, Sweden).
(§2) Ten, 2-fold dilutions of the peptide were injected over the FcRn-CM5 chip at a rate of 20 μl/min for 2 min. The peptide was dissociated from the chip for 2.5 minutes with buffer. Any remaining peptide was removed from the chip with a 30 second injection of HBS-P buffer (Biacore AB, Uppsala, Sweden) at a rate of 30 μl/min. Sensorgrams were generated and analyzed using BiaEval software version 3.1 (Biacore AB, Uppsala, Sweden). The equilibrium RU observed for each injection was plotted against concentration. The equilibrium KD values were derived by analysis of the plots using the steady state affinity model included in the BiaEval software.

soluble human FcRn [2] = biological target: T1, soluble human FcRn; experiment: SPR, pH 6; remark: listed apart in the source
soluble human FcRn [3] = biological target: T1, soluble human FcRn; experiment: ELISA, competitor human IgG
Protocol: (§3) The wells were coated with 100 μl/well of 1 μg/ml biotinylated-shFcRn in Buffer A. The plate was sealed and incubated at 37° C. for 2 hours. Afterwards, the plate washed with 200 μl/well of Buffer B (Buffer B: 100 mM MES pH 6, 150 mM NaCl, 0.5% BSA IgG-free (Jackson ImmunoResearch, West Grove, Pa.), 0.05% Tween-20). […] To allow for mixing, the plate was rocked for 2 minutes, sealed and incubated at 37° C. for 2 hours. […] The plate was covered, incubated for 30 minutes at room temperature and washed 4 times with 200 μl/well of ice-cold buffer B. SureBlue TMB substrate solution (100 μl/well, KPL, Gaithersburg, Md.) was added and the plate was allowed to incubate at room temperature until color developed, which took 5 to 10 minutes. Once color developed, 100 μl/well of TMB stop solution (KPL, Gaithersburg, Md.) was added and the absorbance was measured at 450 nm. The data was plotted as absorbance vs. peptide concentration to derive the inhibitory concentration 50% (IC₅₀) values.

soluble human FcRn [4] = biological target: T1, soluble human FcRn; experiment: ELISA, competitor human IgG; remark: listed apart in the source
Protocol: as §3

soluble human FcRn [5] = biological target: T1, soluble human FcRn; experiment: SPR, pH 7.4
Protocol: as §1, §2

soluble human FcRn [6] = biological target: T1, soluble human FcRn; experiment: ELISA, competitor human IgG; remark: listed apart in the source
Protocol: as §3

soluble human FcRn [7] = biological target: T1, soluble human FcRn; experiment: SPR, pH 6; remark: listed apart in the source
Protocol: as §1, §2

soluble human FcRn [8] = biological target: T1, soluble human FcRn; experiment: SPR, pH 6; remark: listed apart in the source
Protocol: as §1, §2

soluble human FcRn [9] = biological target: T1, soluble human FcRn; experiment: SPR, pH 6; remark: listed apart in the source
soluble human FcRn [10] = biological target: T1, soluble human FcRn; experiment: ELISA, competitor human IgG; remark: listed apart in the source
Protocol: as §3

soluble human FcRn [11] = biological target: T1, soluble human FcRn; experiment: SPR, pH 6; remark: listed apart in the source
Protocol: as §1, §2

soluble human FcRn [12] = biological target: T1, soluble human FcRn; experiment: ELISA, competitor human IgG; remark: listed apart in the source
Protocol: as §3

soluble human FcRn [13] = biological target: T1, soluble human FcRn; experiment: SPR, pH 6; remark: listed apart in the source
Protocol: as §1, §2

soluble human FcRn [14] = biological target: T1, soluble human FcRn; experiment: ELISA, competitor human IgG; remark: listed apart in the source
Protocol: as §3

Kd (soluble human FcRn [1]): 2.1 µM
Binder: QRFXTGHFGGLYPXNGP (hC at 4; Pen at 14; disulfide; C-terminal amide) [Peptide No. 70]

Kd (soluble human FcRn [2]): 0.086 µM
IC50 (soluble human FcRn [3]): 1.6 µM
Binder: QRFXTGHFGGLYPCNGP (Pen at 4; NMeLeu at 11; disulfide; C-terminal amide) [Peptide No. 113]

Kd (soluble human FcRn [1]): 3.9 µM
IC50 (soluble human FcRn [4]): 21 µM
Binder: QRFCTGHFGGLYPXNGP (hC (L-homocysteine) at 14; disulfide; C-terminal amide) [Peptide No. 27]

Kd (soluble human FcRn [5]): 1.1 µM
IC50 (soluble human FcRn [6]): 1.4 µM
Binder: QRFXTGHFGPLYPCNGP (Pen at 4; D-Pro at 10; disulfide; C-terminal amide) [Peptide No. 40]

Kd (soluble human FcRn [7]): 0.58 µM
Kd (soluble human FcRn [5]): 4.9 µM
Binder: QRFXTGHFDGLYPCNGP (Pen at 4; D-Asp at 9; disulfide; C-terminal amide) [Peptide No. 47]

Kd (soluble human FcRn [7]): 1.7 µM
Kd (soluble human FcRn [5]): 100 µM
Binder: QRFXTGHFGFLYPCNGP (Pen at 4; D-Phe at 10; disulfide; C-terminal amide) [Peptide No. 44]

Kd (soluble human FcRn [7]): 2 µM
Kd (soluble human FcRn [5]): 20 µM
Binder: QRFXTGHFGHLYPCNGP (Pen at 4; D-His at 10; disulfide; C-terminal amide) [Peptide No. 42]

Kd (soluble human FcRn [5]): 41 µM
IC50 (soluble human FcRn [6]): 18 µM
Binder: QRFXTGHFGILYPCNGP (Pen at 4; D-Ile at 10; disulfide; C-terminal amide) [Peptide No. 43]

Kd (soluble human FcRn [7]): 0.83 µM
Kd (soluble human FcRn [5]): 8.8 µM
IC50 (soluble human FcRn [6]): 8.1 µM
B1: Peptide No. 41 (peptide)
peptide: QRF[Pen]TGHFG[dR]LYPCNGP-NH2
modifications: disulfide 4-14; N-terminus assumed
SMILES: CC(C)C[C@@H]1NC(=O)[C@@H](CCCNC(=N)N)NC(=O)CNC(=O)[C@H](Cc2ccccc2)NC(=O)[C@H](Cc2c[nH]cn2)NC(=O)CNC(=O)[C@H]([C@@H](C)O)NC(=O)[C@@H](NC(=O)[C@H](Cc2ccccc2)NC(=O)[C@H](CCCNC(=N)N)NC(=O)[C@@H](N)CCC(N)=O)C(C)(C)SSC[C@@H](C(=O)N[C@@H](CC(N)=O)C(=O)NCC(=O)N2CCC[C@H]2C(N)=O)NC(=O)[C@@H]2CCCN2C(=O)[C@H](Cc2ccc(O)cc2)NC1=O

IC50 (soluble human FcRn [3]): > 125 µM
Binder: QRFXTGHFGGLYPCNGP (Pen at 4; Sar at 6; disulfide; C-terminal amide) [Peptide No. 108]

IC50 (soluble human FcRn [3]): 0.9 µM
Binder: QRFXTGHFGGLYPCNGP (Pen at 4; Sar at 10; disulfide; C-terminal amide) [Peptide No. 112]

IC50 (soluble human FcRn [4]): 2 µM
Binder: QRFXTGHFGGLYPXNGP (Pen at 4; hC at 14; disulfide; C-terminal amide) [Peptide No. 69]

IC50 (soluble human FcRn [4]): > 125 µM
Binder: QRF[dC]TGHFGGLYPCNGP-NH2 (disulfide 4-14 (inferred)) [Peptide No. 29]

Kd (soluble human FcRn [2]): 92 µM
IC50 (soluble human FcRn [3]): > 125 µM
Binder: QRFXTGHFGGLYPCNGP (Pen at 4; NMeTyr at 12; disulfide; C-terminal amide) [Peptide No. 114]

Kd (soluble human FcRn [8]): 72 µM
Binder: QRFXTGHFGGLXPCNGP (Pen at 4; pentafluoroPhe at 12; disulfide; C-terminal amide) [Peptide No. 65]

Kd (soluble human FcRn [8]): 290 µM
Binder: QRFXTGHFGGLXPCNGP (Pen at 4; 2-nitro-Tyr at 12; disulfide; C-terminal amide) [Peptide No. 87]

Kd (soluble human FcRn [9]): 230 µM
IC50 (soluble human FcRn [10]): > 125 µM
Binder: QRFSTGHFGGLYPSNGP-NH2 [Peptide No. 71]

Kd (soluble human FcRn [8]): 230 µM
Binder: QRFCTGHFGGLFPCNGP-NH2 (disulfide 4-14 (inferred)) [Peptide No. 26]

Kd (soluble human FcRn [11]): 8 µM
IC50 (soluble human FcRn [12]): 30 µM
Binder: QRFCTGHFGGLYPCAGP-NH2 (disulfide 4-14 (inferred)) [SEQ ID NO:36]

Kd (soluble human FcRn [11]): 28 µM
IC50 (soluble human FcRn [12]): 95 µM
Binder: QRACTGHFGGLYPCNGP-NH2 (disulfide 4-14 (inferred)) [SEQ ID NO:26]

Kd (soluble human FcRn [2]): 18 µM
IC50 (soluble human FcRn [3]): 169 µM
Binder: QRFC[NMeA]GHFGGLYPCNGP-NH2 (disulfide 4-14 (inferred)) [Peptide No. 196]

Kd (soluble human FcRn [11]): 7.7 µM
IC50 (soluble human FcRn [12]): 23 µM
Binder: QAFCTGHFGGLYPCNGP-NH2 (disulfide 4-14 (inferred)) [SEQ ID NO:25]

Kd (soluble human FcRn [11]): 4.9 µM
IC50 (soluble human FcRn [12]): 30 µM
Binder: QRFCAGHFGGLYPCNGP-NH2 (disulfide 4-14 (inferred)) [SEQ ID NO:27]

Kd (soluble human FcRn [2]): 0.031 µM
Kd (soluble human FcRn [13]): 0.031 µM
Binder: RFXTGHFGGLYPC (Pen at 3; Sar at 9; NMeLeu at 10; disulfide; C-terminal amide) [Peptide No. 235]

Kd (soluble human FcRn [13]): 2.1 µM
IC50 (soluble human FcRn [14]): 29 µM
Binder: RFXTGHFNGLYPC (Pen at 3; D-Asn at 8; Sar at 9; NMeLeu at 10; disulfide; C-terminal amide) [Peptide No. 243]

IC50 (soluble human FcRn [14]): > 50 µM
Binder: RFXTGHFVGLYPC (Pen at 3; D-Val at 8; Sar at 9; NMeLeu at 10; disulfide; C-terminal amide) [Peptide No. 218]

Kd (soluble human FcRn [13]): 0.58 µM
IC50 (soluble human FcRn [14]): 6.4 µM
Binder: RFXTGHFEGLYPC (Pen at 3; D-Glu at 8; Sar at 9; NMeLeu at 10; disulfide; C-terminal amide) [Peptide No. 244]

Kd (soluble human FcRn [13]): 0.47 µM
IC50 (soluble human FcRn [14]): 4 µM
Binder: RFXTGHFLGLYPC (Pen at 3; D-Leu at 8; Sar at 9; NMeLeu at 10; disulfide; C-terminal amide) [Peptide No. 219]

Kd (soluble human FcRn [13]): 1.4 µM
Binder: RFXTGHFFGLYPC (Pen at 3; D-Phe at 8; Sar at 9; NMeLeu at 10; disulfide; C-terminal amide) [Peptide No. 217]

Kd (soluble human FcRn [13]): 1.1 µM
IC50 (soluble human FcRn [14]): 23 µM
Binder: RFXTGHFSGLYPC (Pen at 3; D-Ser at 8; Sar at 9; NMeLeu at 10; disulfide; C-terminal amide) [Peptide No. 241]

Kd (soluble human FcRn [13]): 4.8 µM
IC50 (soluble human FcRn [14]): 71 µM
Binder: RFXTGHFTGLYPC (Pen at 3; D-Thr at 8; Sar at 9; NMeLeu at 10; disulfide; C-terminal amide) [Peptide No. 240]

Kd (soluble human FcRn [9]): 15 µM
IC50 (soluble human FcRn [10]): 72 µM
B2: Peptide No. 169 (peptide)
peptide: QRFVTGHFG[dP]LYPINGP-NH2
modifications: N-terminus assumed
SMILES: CC[C@H](C)[C@H](NC(=O)[C@@H]1CCCN1C(=O)[C@H](Cc1ccc(O)cc1)NC(=O)[C@H](CC(C)C)NC(=O)[C@H]1CCCN1C(=O)CNC(=O)[C@H](Cc1ccccc1)NC(=O)[C@H](Cc1c[nH]cn1)NC(=O)CNC(=O)[C@@H](NC(=O)[C@@H](NC(=O)[C@H](Cc1ccccc1)NC(=O)[C@H](CCCNC(=N)N)NC(=O)[C@@H](N)CCC(N)=O)C(C)C)[C@@H](C)O)C(=O)N[C@@H](CC(N)=O)C(=O)NCC(=O)N1CCC[C@H]1C(N)=O

Kd (soluble human FcRn [7]): 0.48 µM
Kd (soluble human FcRn [5]): 5.3 µM
IC50 (soluble human FcRn [6]): 2.4 µM
Binder: QRFXTGHFGXLYPCNGP (Pen at 4; Aib (aminoisobutyric acid) at 10; disulfide; C-terminal amide) [Peptide No. 46]

Kd (soluble human FcRn [8]): 180 µM
Binder: QRFXTGHFGGLXPCNGP (Pen at 4; 4-nitro-Phe at 12; disulfide; C-terminal amide) [Peptide No. 68]

Kd (soluble human FcRn [1]): 3.8 µM
IC50 (soluble human FcRn [4]): 20 µM
Binder: QRFXTGHFGGLYPXNGP (hC at 4 and 14; disulfide; C-terminal amide) [Peptide No. 28]

Kd (soluble human FcRn [1]): 0.28 µM
IC50 (soluble human FcRn [4]): 1.6 µM
Binder: QRFXTGHFGPLYPXNGP (Pen at 4 and 14; D-Pro at 10; disulfide; C-terminal amide) [Peptide No. 295]

Kd (soluble human FcRn [1]): 0.37 µM
IC50 (soluble human FcRn [4]): 2 µM
Binder: QRFXTGHFGGLYPXNGP (Pen at 4 and 14; disulfide; C-terminal amide) [Peptide No. 34]

— patent US20070254831A1 (published 2007)
